Laboratory results reported in the RNAGym collection of RNA variant scans (doi:10.1073/pnas.2313332121).
This sample holds only a part of the variants without activity.

B1: TPR 5TU (parent)
chain: GGAUCUUCUCGAUCUAACAAAAAAGACAAAUCUGCCACAAAGCUUGAGAGCAUCUUCGGAUGCAGAGGCGGCAGCCUUCGGUGGCGCGAUAGCGCCAACGUUCUCAACUAUGACACGCAAAACGCGUGCUCCGUUGAAUGGAGUUUAUCAUG

Variants of: B1
Assay: polymerase ribozyme fitness, log enrichment relative to wild type (log ratio); higher = more active; in vitro selection for triplet polymerase activity
Summary of the method: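 Genotype fitness is the logarithm of its enrichment divided by wild-type enrichment, using inverse-variance-weighted averages of replicates. That logarithm is base 2. Enrichment was measured by Illumina sequencing of input and output libraries from one triplicate in vitro selection round, with frozen incubation at −7 °C, on PCR-built, transcribed mutant libraries of each subunit of a heterodimeric triplet polymerase ribozyme, retaining genotypes with ≥10 input reads and ≥1 read per output.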

Variant	polymerase ribozyme fitness (log ratio)
GGAUCUUCUCGAUGUAACAAAAAAGACAAAUCUGCCAAAAAGCUUGAGAGCCUCUUAGGAUACAGAGGCGGCAGCCUUCGGUAGCGCGCUAGCGCGAACGUUCUCAACUCUGACACGCAAAACGCGUGCUCCGUUGAAUGGAGUUUAUCAUG [C14G C38A A52C C57A G62A G83A A89C C96G A110C]	-3.85
GGAUCUUCUCGAUGUAACAAAAAAGACAAAUCUGCCACAAAGCUUGAGAGCAUCUUCGGAUGCAGAGGCGGCAGCCUUCGGUGGCGCGAUAGCGCCAACGUUCUCAGCUAUGACACGCAAAACGCGUGCUCCGUUUAAUGGAGUUUAUCAUG [C14G A107G G136U]	≤ -4.2
GGAUCUUCUCGAUGUAACAAAAAAGACAAAUCUGCCACAAAGCUUGAGAGCCUCUUCAGAUGCAGAGGCGGCAGCCUUCGGUGGCGCGAUAGCGCUAACGUUCUCAACUAUGACACGCAAAACGGGUGCUCCGUUGAAUGGAGUUUAUCAUG [C14G A52C G58A C96U C125G]	-3.92
GGAUCUUCUCGAUGUAACAAAAAAGACAAAUCUGCCACAAAGCUUGCGAGCAUGUACGGAUGCAGAGGCGGCAGCCUUCGGUGGCGCGAUAGAGCCAACGUUCUCAAUUAUGACACGCAAAACUCGUACUCCGUUGAAUGGAGUUUAUCAUG [C14G A47C C54G U56A C93A C108U G124U G128A]	≤ -4.2
GGAUCUUCUCGAUGUAACAAAAAAGACAAAUCUGCCACAAAUCUUCAGAGCAUCUUCGGAUGCAGAGGCGGCAGCCUUCGGUGGCGCGAUACCGCCAACGUUCUCAACUAUGACACGCUAAACGCGUACUCCGUUGAAUGGAGUUUAUCAUG [C14G G42U G46C G92C A119U G128A]	≤ -4.2
GGAUCUUCUCGAUGUAACAAAAAAGACAAAUCUGCCACAAAGCUUGAGAGCAUCUUCGGAUGCAGAGGCGGCAGCCUUCGGUGGCGCGAUAGUGCCAACGUUCUCAACUAUGACACGCAAAACGCGUGCUCCGUUGAAUGGAGUUUAUCAUG [C14G C93U]	-3.66
GGAUCUUCUCGAUGUAACAAAAAAGACAAAUCUGCCACAAAGCUUGAGAGCAUCUUCGGAUGCAGAGGCGGCAGUCUUCGGUGGCGCGAUAGCGCCAACGUUCUCAACUAUGACACGCAAAACGCGUGCUCCGUUGAAUGGAGUUUAUCAUG [C14G C75U]	-2.58
GGAUCUUCUCGAUGUAACAAAAAAGACAAAUCUGCCACAAAGCUUGAGAGCAUCUUCGGAUGCAGAGGCGGUAGCCUUCGGUGGCGCGAUAGCGCCAACGUUCUCAACUAUGACACGCAAAACGCGUGCUCCGUUGAAUGGAGUUUAUCAUG [C14G C72U]	-3.04
GGAUCUUCUCGAUGUAACAAAAAAGACAAAUCUGCCACAAAGCUUGAGAGCAUCUUCGGAUGCAGAGGCGGCAGCCUUCGGUAGCGCGAUAGCGCCAACGUUCUCAACUAUGACACGCAAAACGCGUGCUCCGUUGAAUGGAGUUUAUCAUG [C14G G83A]	-2.42
GGAUCUUCUCGAUGUAACAAAAAAGACAAAUCUGCCACAAAGCUUGCGAGCAUCUUCGGAUGCAGAGGCGGCAGCCUUCGGUGGCGCGAUAGCGCCAACGUUCUCAACUAUGACACGCAAAACGCGUGCUCCGUUGAAUGGAGUUUAUCAUG [C14G A47C]	-2.35
GGAUCUUCUCGAUGUAACAAAAAAGACAAAUCUGGCACAAAGCUUGAGAGCAUCUUCGGAUGCAGAGGCGGCAGCCUUCGGGGGCGCGAUAACGCAAACAUUCUCAACUAUGACAGGCAGAACGCGUGCUCCGUUGAAUGAAGAUUAUCAUG [C14G C35G U82G G92A C96A G100A C116G A120G G141A U144A]	≤ -4.2
GGAUCUUCUCGAUGUAACAAAAAAAACAAAUCUGCCACAAAGCUUGAGAGCAUCAUCGGAUGCAGAGGCGGCAGCCUUCGGUGGCGCGAUAGCGCCAACGUUCUCAACUAUGACACGCAAAACGCGCGCUCCGUUGAAUGGAGUUUAUCAUG [C14G G25A U55A U127C]	≤ -4.2
GGAUCUUCUCGAUGUAACAAAAAAGACAAAUCUGCAACAAAGCUUGAGAGCGUCUUCGGAUGCAGCGGCGGCAGCCUUCGGUGGCGCGAUAGUGCCAACGUUCUCAACUAUGACACGCAAAACGAGUGCUCCGUUGAAUGGAGUUUAUCAUG [C14G C36A A52G A66C C93U C125A]	≤ -4.2
GGAUCUUCUCGAUGUAACAAAAAAGACAAAUCUGCCACAAAGCUUGAGAGCAUCUUCGGAUGCAGAGGCGGCAGCCUUCGAUGGCGUGAUAGCGCCAACGUUCUCCACUAUGACACGCAAAACGCGUGCUCCGUUGAAUUGAGUUUAUCAUG [C14G G81A C87U A106C G140U]	≤ -4.2
GGAUCUUCUCGAUGUAACAAAAAAGAAAAAUCUGCCUCAAAGCUUGAGAGCAUUUUCGGAUGCAGAAGCGGCAGCCUUCGGUGGCGCGAUAGCUCCAACGUUCUGAACUAUGACACGCAAAACGCGUGCUCCGUUGAAUGGAGUUUAUCAUG [C14G C27A A37U C54U G67A G94U C105G]	≤ -4.2
GGAUCUUCUCGAUGUAAUAAACAAGACAAAUCUGCCACACAGCUUGAGAGCAACUUCGGAUGCAGAGGCGGCAGACAUCGGUGGCGCGAUAGCCCCAACGUUCUCAACUAUGACACUCGAAACGCGUGCUCCGUUGAAUGGAGUUUAUGAUG [C14G C18U A22C A40C U53A C75A U77A G94C G117U A119G C149G]	≤ -4.2
GGAUCUUCUCGAUGUAACAAAAAAGACAAAUCUGCCACAAAGCUUGAGAGCAUCUUCGGAUGCAGAGGCGGCAGCCUUCGGUGGGGCGAUAGCGCCAACGUUAUCAACUAUGACACGCAAAACGCGUGCUCCGUUGAAUGGAGUUUAUCAUG [C14G C85G C103A]	≤ -4.2
GGAUCUUCUCGAUGUAACAAAAAAGACAAAUCUGCCACAAAGCUUGAGAGCAUCUUCGGUUGCAGAGGCGGCAGCCUUCGGUGGCUCGAUAGCGCCAACGUUCUCAACUAUGACACGCAAAACGCGUGCUCCGUUGAAUGGAGUUUAUCAUG [C14G A60U G86U]	≤ -4.2
GGAUCUUCUCGAUGUAACAAAAAAGACAAAUCUGCCACAAAGCUUGAGAGCAUCUUCGGAUGCAGAGGCGGCAGACUUCGGUGUCGCGAUAGCGCCAACGUUCUCAACUAUGACACGCAAAACGCGUGCUCCGUUGAAUGGAGUUUAUCAUG [C14G C75A G84U]	-4.14

Variant	polymerase ribozyme fitness (log ratio)
GGAUCUUCUCGAUGUAACAAAAAAGACAAAUCUGCCACACACCUUGAAAGCAUCUUCGGAUGCAGAGGCGGCAGCCUUCGGUGGCUCGAUAUCGCCAAAGUUCUCAACUAUGACACGCAAAACGCGUGCUCCGUUGAAUGGAGUUUAUCAUG [C14G A40C G42C G48A G86U G92U C99A]	≤ -4.2
GGAUCUUCUCGAUGUAACAAAAAAGACAAAUCUGCCACAAAGCUUGAGAGCAUGUUCGGAUGCAGAGCCGGCAGCCUUCGGUGGUGCGAUAGCGCCAACGUUCUAAACUAUGAAACGCAAAACGCGUGCUCCGUUGUAUGGAGUUUAUCAUG [C14G C54G G68C C85U C105A C114A A137U]	≤ -4.2
GGAUCUUCUCGAUGUAACAAAAAAGACAAAUCUGCCACAAAGCUUUAAAGCAUCUUCGGAUGCAGAGGCGGCUGCCCUCGGUGGCGCGAUAGCGCCAACGUUCUCAACUAUGACACGCAAAACGCGUGCUCCGUUGAAUGGAGUUUAUCAUG [C14G G46U G48A A73U U77C]	≤ -4.2
GGAUCUUCUCGAUGUAACAAAAAAGACAAAUCUGCCACAAAGCUUGAGAGCGUCUUCGGAUGCAGAGGCGGCAGCCUUCGGUGGCGCGAUAGCGCCAACGUUCUCAACUAUGACACGCAAAACGCGUGCUCCGUUGAAUGCAGUUUAUCAUG [C14G A52G G141C]	-3.34
GGAUCUUCUCGAUGUAACAAAAAAGACAAAUCUGCCACAAAGCUUGACAGCAUCUUCGGAUGCAGAGGCGGCAGCCUUCGGUGGCGCGAUAGCGCCAACGUUCUCAACUAUGACACGCAAAACGCGUGCUCCGUUGAAUGGAGUUAAUCAUG [C14G G48C U146A]	-4.06
GGAUCUUCUCGAUGUAACAAAAAAGAGAAAUCUGCCACAAAGCUUGAGAGCAUCGUCGGAUGCAGAGACGGCAGCCUUCGGAGGCGCGAUAGCCCCAACGUUCUCAUCUAUGACACGCAAAACGCGUGCUCCGUUGAAUGGGGUUUAUCAUG [C14G C27G U55G G68A U82A G94C A107U A142G]	≤ -4.2
GGAUCUUCUCGAUGUAACAAAAAAGACAAAUCUGCUACAAAGCUUGAGAGCAUCGUCGGAUGCAGAGUCGGCAGCCUUCGGUGGCGCGAUAGGGCCAACGUUCUCAACUAUGACACGCAAAACGCGUGCUCCGAUGAAUGGAGUUUAUCAUG [C14G C36U U55G G68U C93G U134A]	≤ -4.2
GGAUCUUCUCGAUGUAACAAAAAAGACAAAUCUGCCACAAAGCUUGAGAGCAUCUUCGGAUGCAGUGGAGGCAGCCUUCGGUGGCGCGAUAGCGCCAACGUUCUCAACUAUGACACGCAAAACGCGUGCUCCGUUGAAUGGAGUUUAUCAUG [C14G A66U C69A]	≤ -4.2
GGAUCUUCUCGAUGUAACAAAAAAGACAAAUCUGCCACAAAGCUUGAAAGCAUCUUCGGAUGCAGAGGCGGCAGCCUUCGGUGGCGCGAUAGCGCCAACGUUCUCAACUAUGACACGCGAAACGCGUGCUCCGUUGAAUGGAGUUUAUCAUG [C14G G48A A119G]	-3.43
GGAUCUUCUCGAUGUAACAAAAAAGACAAAUCUGCCACAAAGCUUGAGAGCAUCUUUGGAUGCAGAGGCGGCAGCCUUCGGUGGCGCGAUAGCGCCAACGUUCUCAACUAUGACACGCAAAACGCGUGCUCCGUUGAAUGGAGUUUAUCAUG [C14G C57U]	-2.06
GGAUCUUCUCGAUGUAACAAAAAAGACAAAUCUGCCACAAAGCUUGAGAGCAUCUUAGGAUGCAGAGGCGGCAGCCUUCGGUGGCGCGAUAGCGCCAACGUUCUCAACUAUGACACGCAAAACGCGUGCUCCGUUGAAUGGAGUUUAUCAUG [C14G C57A]	-1.52
GGAUCUUCUCGAUGUAACAAAAAAGAGAAAUCUGCCACAAAGCUUGAGAGCAUCUUCAGAUGCAGAGGCGGCAGCCUUCGGUGGCUCGAUAGCGCCAACGUUCUCAACUAUGACACGCAAAACGCGCGCUCCGUUGAAUGGAGUUUAUCAUG [C14G C27G G58A G86U U127C]	-4.16
GGAUCUUCUCGAUGUAACAAAAAAGACAAAUCUGCCACAAAGCUUGAGACUAUCUUCGGAUGCAGAGGCGGCAGCCUUUGGUGGAGCGAUAGCGCCAACGUUCUCAACUAUGACACGCAAAACGAGUGCUCCGUUGAAUGGAGUUUAUCAUG [C14G G50C C51U C79U C85A C125A]	≤ -4.2
GGAUCUUCUCGAUGUAACAAAAAAGACAAAUCUGCCAUAAAGCUUGAGAGCAUCUUCGGAUGCAGAGGCGGCAGCCUUCGGUGGCGCGAUAGCGGCAACGUUCUCCACUAUGACACGCAAAACGCGUGCUCCGUUGAAUGGAGUUUAUCAUG [C14G C38U C95G A106C]	-4.14
GGAUCUUCUCGAUGUAACAAAAAAGACAAAUCUGACACAAACCUUGAGAGCAUCUUCGGAUGCAGGGGCGGCAGCCUUCGGUGGCGCGAUAGCGCGAACGUUCUCAACUAUGACACUCAAAACGCGUGCUCCGUUGAAUGGAGUUUAUCAUG [C14G C35A G42C A66G C96G G117U]	≤ -4.2
GGAUCUUCUCGAUGUAACAAAAAAGACAAAUCUGUCACAAACCUUGAGAGCUUCUUCGGAUGCAGAGGCGGCAGACUUGGGUGGCGCGAUACCGCCAACGUUCUCAACUAUGACACGUAAAACGCGUGCUCCGUUGAAUCGAGUUUAUCAUG [C14G C35U G42C A52U C75A C79G G92C C118U G140C]	-4.09
GGAUCUUCUCGAUGUAACAAAAAACACAAAUCUGCCACAAAGCUUGAGAGCAUCUUCGGAUGCAGAGGCGGCAGCCUUCGGUGGCGCGAUAGCGCCAACGUUCUCAACUAUGACACGCAAAACGCGUGCUCCGUUGAAUGGAGUUUAUCAUG [C14G G25C]	≤ -4.2
GGAUCUUCUCGAUGUAACAAAAAAGACAAAUCUGCCACAAAGCUUGAGAGCAUCUUCGGAUGCAGAGGCGGCAGCCUUCGGUGGUGCGAUAGCGCCAACGUUUUCAACUAUGACACGCAAAACGCGUGCUCCGUUGAAUGGAGUUUAUCAUG [C14G C85U C103U]	-3.1
GGAUCUUCUCGAUGUAACAAAAAAGACAAAUCUGCCACAAAGCUUGAGAGCAUCUUCAGAUGCAGAGGCGGCAGCCUUCGGUGGCGCGAUAGCGCCAACGUUCUCAACUAUGACACGCAAAACGCGUGCUCCGUUGAAUGGAGUUUAUCAUG [C14G G58A]	-2.24
